The text below walks through data of publication PMC10819093.

One may read the Kd as the constant that tells how readily two partners part at equilibrium. The low end stands for higher affinity, the high end for lower affinity.

The target in assay [1] is HIV-1 gp41 protein (surface plasmon resonance) (HIV-1). The assay can be described thus: SPR; BIAcore 3000; HIV-1 proteins amine coupled to CM-5 chips (50 µg/mL in 20 mM sodium acetate); serially diluted antibody injected at 30 µL/minute for about 100 s in HBS (10 mM HEPES, 150 mM NaCl, 3 mM EDTA). For orientation: SPR reads the build-up and loss of mass on a sensor chip optically.

Assay [2] concerns the target HIV-1 gp120 protein (surface plasmon resonance) (HIV-1). Described as above.

On to “trispecific antibody iMab + PRO140 + 10E8”, for which the Kd in assay [1] came out at 6.12 nM.
“trispecific antibody iMab + PRO140 + PGT121” showed a Kd in assay [2] of 0.59 nM.
As to “trispecific antibody iMab + PRO140 + PGDM1400”, in assay [2], the Kd was determined as 0.46 nM.
